± gives the uncertainty stated by the source.
Experiment: self-splicing fitness, log relative to wild type (ln ratio); higher = more splicing; Tetrahymena group I intron in knt gene, E. coli kanamycin selection, DiMSum; sequences stand for … in CUCUCU…GGAGGGAAAAGUUAUCAGGCAUGCACCUGGUAGCUAGUCUUUAAACCAAUAGAUUGCAUCGGUUUAAAAGGCAAGACCGUCAAAUUGCGGGAAAGGGGUCAACAGCCGUUCAGUACCAAGUCUCAGGGGAAACUUUGAGAUGGCCUUGCAAAGGGUAUGGUAAUAAGCUGACGGACAUGGUCCUAACCACGCAGCCAAGUCCUAAGUCAACAGAUCUUCUGUUGAUAUGGAUGCAGUUCACAGACUAAAUGUCGGUCGGGGAAGAUGUAUUCUUCUCAUAAGAUAUAGUCGGACCUCUCCUUAAUGGGAGCUAGCGGAUGAAGUGAUGCAACACUGGAGCCGCUGGGAACUAAUUUGUAUGCGAAAGUAUAUUGAUUAGUUUUGGAGUACUCGUGGUCG
Procedure, shortened: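 A randomised library covering all eight P1ex-region intron nucleotides was built with the intron in the knt kanamycin-resistance gene on pET-22b(+) and held in E. coli BL21(DE3). Cells were grown overnight at 37°C or 30°C on LB agar, with or without 25 μg/mL kanamycin, plus 100 μg/mL carbenicillin, 50 μM IPTG and 0.2% rhamnose, and pooled colonies were amplicon-sequenced on an Illumina HiSeq 2500. DiMSum fitness is the error-weighted combination of wild-type-normalised replicate fold changes, kanamycin versus none.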

Sequence	self-splicing fitness (ln) (30 °C)	self-splicing fitness (ln) (37 °C)
AACUAGCAAUAUUACGUGUU	-2.68 ± 0.11	-2.45 ± 0.16
AACUAGCAAUAUUACGUUUG	-3.27 ± 0.15	-1.72 ± 0.14
AAGAAGCAAUAUUACGAAAU	-1.98 ± 0.17	-2.03 ± 0.19
AAGAAGCAAUAUUACGACAC	-0.918 ± 0.12	-0.625 ± 0.14
AAGAAGCAAUAUUACGACCA	-0.349 ± 0.1	-0.795 ± 0.2
AAGAAGCAAUAUUACGAGAU	-3.43 ± 0.18	-1.56 ± 0.14
AAGAAGCAAUAUUACGAGCG	-0.646 ± 0.14	-0.754 ± 0.2
AAGAAGCAAUAUUACGCACC	-1.11 ± 0.12	-0.644 ± 0.15
AAGAAGCAAUAUUACGCAGU	-2.66 ± 0.18	-2.08 ± 0.15
AAGAAGCAAUAUUACGCAUU	-2.89 ± 0.21	-1.52 ± 0.21
AAGAAGCAAUAUUACGCCCU	0.319 ± 0.11	0.0852 ± 0.12
AAGAAGCAAUAUUACGCCUC	-1.82 ± 0.26	-1.85 ± 0.27
AAGAAGCAAUAUUACGCUAA	-1.69 ± 0.14	-0.682 ± 0.15
AAGAAGCAAUAUUACGCUGC	-2.58 ± 0.32	-1.75 ± 0.35
AAGAAGCAAUAUUACGGACC	-1.28 ± 0.13	-0.312 ± 0.18
AAGAAGCAAUAUUACGGAGG	-3.92 ± 0.29	-2.96 ± 0.32
AAGAAGCAAUAUUACGGAGU	-3.02 ± 0.15	-2.86 ± 0.17
AAGAAGCAAUAUUACGGCCU	-0.278 ± 0.11	-0.574 ± 0.14
AAGAAGCAAUAUUACGGCUC	-1.19 ± 0.12	-0.0707 ± 0.15

Sequence	self-splicing fitness (ln) (30 °C)	self-splicing fitness (ln) (37 °C)
AAGAAGCAAUAUUACGGCUG	-0.496 ± 0.077	-0.25 ± 0.12
AAGAAGCAAUAUUACGGUAA	-2.01 ± 0.19	-0.929 ± 0.16
AAGAAGCAAUAUUACGGUCC	-1.1 ± 0.14	0.249 ± 0.16
AAGAAGCAAUAUUACGGUGG	-2.93 ± 0.13	-1.98 ± 0.13
AAGAAGCAAUAUUACGUACC	-0.392 ± 0.14	0.219 ± 0.19
AAGAAGCAAUAUUACGUACU	0.124 ± 0.082	0.141 ± 0.099
AAGAAGCAAUAUUACGUAGG	-2.09 ± 0.082	-1.14 ± 0.12
AAGAAGCAAUAUUACGUCAA	-1.78 ± 0.11	-0.843 ± 0.088
AAGAAGCAAUAUUACGUGGC	-4.15 ± 0.22	-2.99 ± 0.2
AAGCAGCAAUAUUACGAAAG	-3.93 ± 0.23	-2.29 ± 0.17
AAGCAGCAAUAUUACGACAG	-3.04 ± 0.13	-1.54 ± 0.12
AAGCAGCAAUAUUACGACGU	-0.298 ± 0.067	0.18 ± 0.077
AAGCAGCAAUAUUACGAUCA	-1.28 ± 0.091	-0.405 ± 0.11
AAGCAGCAAUAUUACGCCUG	-2.41 ± 0.13	-1.58 ± 0.14
AAGCAGCAAUAUUACGCGAC	-0.688 ± 0.22	-1.95 ± 0.25
AAGCAGCAAUAUUACGCGCU	-2.53 ± 0.11	-1.73 ± 0.11
AAGCAGCAAUAUUACGCGGA	-2.59 ± 0.13	-1.46 ± 0.11
AAGCAGCAAUAUUACGCGUA	-1.57 ± 0.11	-0.515 ± 0.1
AAGCAGCAAUAUUACGGCGC	-0.59 ± 0.2	-1.02 ± 0.19

Source: the supplement of paper PMC7877785
